These results are taken from PMC12604968, “Mutant NPM1 modulates PDCD4 ubiquitination degradation and facilitates leukemogenesis” (iScience, 2025).

The labels stand for the following.
B1: His-tagged NPM1 N-terminal domain (NPM1-NT, aa 1-117) (domain or fragment, human, UniProt P06748 1-117, looked up)
chain: MEDSMDMDMSPLRPQNYLFGCELKADKDYHFKVDNDENEHQLSLRTVSLGAGAKDELHIVEAEAMNYEGSPIKVTLATLKMSVQPTVSLGGFEITPPVVLRLKCGSGPVHISGQHLV
notes: source: E. coli BL21 (DE3), purified (Ni-NTA)

Experiment [1] deals with T1, GST-PDCD4 recombinant protein (human, UniProt Q53EL6 1-469).
T1 construct: PDCD4 (programmed cell death 4), human, amplified from cDNA of HEK293T cells and cloned into pGEX-6P-1; pGEX-6P-1 is known to add GST at the N-terminus; also called GST-tagged PDCD4; source: E. coli BL21 (DE3), purified (Glutathione Sepharose 4FF)
T1 sequence (looked up): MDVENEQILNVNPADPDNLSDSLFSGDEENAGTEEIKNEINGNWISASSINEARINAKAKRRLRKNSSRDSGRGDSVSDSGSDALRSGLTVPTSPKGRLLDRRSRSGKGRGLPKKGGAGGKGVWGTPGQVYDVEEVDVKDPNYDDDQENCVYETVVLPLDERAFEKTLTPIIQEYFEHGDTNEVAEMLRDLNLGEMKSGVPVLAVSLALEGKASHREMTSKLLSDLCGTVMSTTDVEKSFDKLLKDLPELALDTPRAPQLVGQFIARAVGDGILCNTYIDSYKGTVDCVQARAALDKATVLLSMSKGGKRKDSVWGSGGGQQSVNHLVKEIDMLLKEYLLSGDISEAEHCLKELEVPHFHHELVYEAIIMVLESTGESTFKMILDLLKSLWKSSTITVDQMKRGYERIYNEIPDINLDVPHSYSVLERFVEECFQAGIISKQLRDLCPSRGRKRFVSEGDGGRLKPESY
Put plainly: pull-down; GST-PDCD4 immobilised on Glutathione Sepharose 4FF beads, incubated with purified His-tagged proteins; SDS-PAGE, Coomassie blue. The settings on record: both partners purified.

The target of experiment [2] is B1. Nature of the experiment: pull-down; biotinylated PDCD4-NoLS peptide immobilised on streptavidin beads, incubated with purified NPM1 fragment proteins. The settings on record: both partners purified.

Ends that are not written are not given here. * marks the point of attachment. Biotin = O=C1N[C@H]2[C@H](CS[C@H]2CCCCC(=O)*)N1

As to B1, the binding result in experiment [1] is given as “binds”.

B2: Biotin-PDCD4-NoLS peptide (peptide)
peptide: Biotin-EARINAKAKRRLRKNSSRDSGRG
notes: PDCD4, human, nucleolar localization signal (NoLS); also called biotinylated PDCD4-NoLS peptides; biotin-tagged PDCD4-NoLS peptide; source: synthetic peptide, bought: GL Biochem; not shown: biotin, N-terminal, kept
For the molecule B2, the binding result in experiment [2] was “binds”.
